Experimental data as given in article PMC3181058.

Molecular target: Protein A (Staphylococcus aureus) (UniProt P38507)
Assay: ITC

Row | Substance | KA, first binding site | N, first binding site | dH, first binding site | dH | stoichiometry N
1 | Nanoparticle-conjugated trastuzumab (CS-DOX-mAb) (antibody) | 3.48e+06 M⁻¹ | 1.65 | -93.9 kcal/mol |  | 
2 | Trastuzumab (Herceptin), free monoclonal antibody |  |  |  | -105 kcal/mol | 2.78
